Data published in patent publication US20140017267A1, “METALLOPROTEINASE OLIGOPEPTIDES AND THEIR THERAPEUTIC USE” (priority 2012, published 2014).

Experiments:
BALB/c female mouse = assay: Immune response to individual peptide: immunization of mice, indirect solid-phase immunoenzymatic assay of antiserum (A450); assay type: in vivo; conditions: for OD 450 Mean values (n = 3-5) for dilution 1:10,000: antiserum of mice immunized i.p. with 100 μg peptide+Str-HRP, day 38 bleed, serum dilution 1:10,000; for immune response: comparison among the 17 peptides
Method: Peptides were dissolved in appropriate volume 8M Urea and additional solution. Final concentration of peptide-Str-HRP solution was 0.8 mg/ml and 0.6 mg/ml for peptide and Str-HRP, respectively. After dissolving, 4 aliquotes in 0.2 ml portions were taken from each peptide solution, mixed with 0.6 ml Str-HRP and incubated over night at +4° C. Conjugate peptide with carrier protein (Str-HRP) was frozen and stored at −20° C. until further use. Final concentration of urea in peptide-Str-HRP solution was 2M for all peptides.
Day 0: Immunization with complete Freund's adjuvant Day 7: Booster with incomplete Freund's adjuvant Day 14: Booster with incomplete Freund's adjuvant Day 28: Booster with incomplete Freund's adjuvant Day 38: Terminal bleed
Method of Immunization: Frozen 0.8 ml aliquotes of peptide+Str-HRP conjugate were thawed at room temperature (RT) and mixed with 0.8 ml of appropriate adjuvant. Adjuvant was added and mixed by vortexing immediately before injections were given. Immunization was done by using intra peritoneal injections with 100 μg peptide per animal in final volume 250 μl of 1:1 (v:v) peptide+Str-HRP:adjuvant. Five animals were used per peptide.
Preparation of serum: At 38 days, the mouse was bled. Blood was collected in 2-ml microcentrifuge tube and the blood was allowed to clot at room temperature for 1 hour. Centrifugation using the microcentrifuge tube with the clot inside was done for 15 min at 2500 g and serum was collected. Volume for each sample was no less than 400 μl. The serum was stored at −20° C.
Testing immune response to individual peptide: Determination of mouse antibodies to peptide based on indirect solid-phase immunoenzymatic assay with avidin on solid-phase was performed. Materials used were 96-well polystyrene plates high binding (#9018 Costar, USA), all solution for ELISA: sample diluent (10 mM sodium phosphate, 500 mM NaCl, 0.5% BSA, 0.05% Tween-20, pH 7.4), conjugate diluent (10 mM sodium phosphate, 150 mM NaCl, 0.5% BSA, 0.05% Tween-20, pH 7.4), wash fluid (10 mM sodium phosphate, 300 mM NaCl, 0.05% Tween-20, pH 7.4), substrate buffer (50 mM sodium citrate and hydrogen peroxide, pH 5.0), TMB solution (3,3′,5,5′-tetramethylbenzidine), stop solution (2M sulphuric acid) were taken from EIA Kit for detection of antibody to HIV “Peptoscreen-2” (Amercard Ltd, Russia), conjugate of rabbit antibody to mouse IgG with HRPO (custom made), avidin from egg white (Imtek, Russia). Negative controls of 5 sera were pooled from the nonimmune BALB/c female mouse. Dispensing of solutions with Finnpipette digital adjustable volume pipettes 0.5-10 μl, 5-40 μl, 20-200 μl, 200-1000 μl, 1-5 ml and 12-channel pipettes 5-50 μl, 50-200 μl. Plate washer ZLE201 (Amersham Inc., UK), incubator at 37° C.—Imperial II (Lab-Line Instruments Inc., USA), EIA plate reader—Luminometer-Photometer LM01A (Immunotech, Beckman Coulter Company, USA).
Test procedure: Peptides for binding on the avidin-coated plate were taken from test-solution for determining the solubility of peptides (chapter 1.3., table 1 and 2) and were dissolved up to 2 mM in sample diluents immediately before the test procedure as shown in Table 3.
EIA plates were coated by adding to a well containing 100 μl of avidin dissolved 10 μg/ml in 50 mM carbonate buffer, pH 9.5 and incubated for 20 h at 20° C. The plates were washed 4 times with wash fluid. Peptides 2 mM, […] in sample diluent and incubated 60 min at 37° C. Control wells contain avidin. The plates were washed 4 times with wash fluid. Serum from each mouse and negative control were diluted 1:100, 1:1000 and 1:10000 in sample diluents and were added to the wells, coated by the corresponding peptide (100 μl per well) and incubated for 1 h at 37° C. The plates were washed 4 times with wash fluid. Conjugates of rabbit anti-mouse IgG antibody with HRPO (dilution of 1:3000 in conjugate diluent) were added to the wells (100 μl per well). The plates were incubated for 0.5 h at 37° C. […]

[1] = Testing of peptide solubility; assay type: physicochemical
[2] = Testing of peptide solubility; assay type: physicochemical; conditions: 8M Urea, final concentration 1.1 mg/ml (first solubility table, headed TABLE 1)
Method: Testing of peptide solubility: Data for peptide solubility are represented in Table 1 and 2. Peptides SEQ ID 5-21 was dissolved in 8M Urea to a final concentration of 1.1 mg/ml.

[3] = 8M Urea, larger weights (TABLE 2), no additional solution

Row | Substance | OD 450 Mean values (n = 3-5) for dilution 1:10,000 (BALB/c female mouse) | Solubility ([1]; 8M Urea plus equal volume 0.1M Na-carbonate buffer, pH 9.5 (TABLE 2)) | Solubility [2] | Solubility [1, 3] | immune response (BALB/c female mouse)
1 | SEQ ID 12: Rat MMP-9 synthetic oligopeptide, sequence CHFPFTFEGRSYLSC | 0.661 | Soluble | Insoluble |  | 
2 | SEQ ID 14: European Carp MMP-9 synthetic oligopeptide, sequence CHFPFLFEGTSYSSC | 0.394 |  | Soluble | Soluble | 
3 | SEQ ID 21: Rabbit MMP-9 synthetic oligopeptide, sequence DKDKLYGFCPTRADS | 0.411 |  | Soluble | Soluble | 
4 | SEQ ID 17: Bovine MMP-9 synthetic oligopeptide, sequence DQDKLYGFCPTRVDA | 0.780 |  | Soluble | Soluble | 
5 | SEQ ID 7: Rat MMP-9 synthetic oligopeptide, sequence DTDRKYGF | 1.610 |  | Soluble | Soluble | 
6 | SEQ ID 20: Carp MMP-9 synthetic oligopeptide, sequence DKKYGFCPNRDTAVI | 0.138 |  | Soluble | Soluble | 
7 | SEQ ID 16: Flounder MMP-9 synthetic oligopeptide, sequence CHFPFTFEGKSYTSC | 0.823 |  | Soluble | Soluble | 
8 | SEQ ID 8: Carp MMP-9 synthetic oligopeptide, sequence DKDKIFGF | 0.097 |  | Soluble | Soluble | 
9 | SEQ ID 18: Rat MMP-9 synthetic oligopeptide, sequence DKADGFCPTRADVTV | 0.138 |  | Soluble | Soluble | 
10 | SEQ ID 10: Rabbit MMP-9 synthetic oligopeptide, sequence DTDRRFGF |  |  | Soluble | Soluble | 
11 | H-RILAVERYLKDQQLLGIWGCSGKLICTTAVPWNAS-OH (cysteine pairing not given here) [SP35, reference compound] |  |  |  | Soluble | 
12 | SEQ ID 15: Pufferfish MMP-9 synthetic oligopeptide, sequence CHFPFRFQNKPYKHC |  |  | Soluble | Soluble | most active
13 | SEQ ID 5: Mouse MMP-9 synthetic oligopeptide, sequence DKDGKFGF | 0.845 |  | Soluble | Soluble | 
14 | SEQ ID 11: Mouse MMP-9 synthetic oligopeptide, sequence DKDGKFGF (printed identical to SEQ ID 5) | 0.183 |  | Soluble | Soluble | 
15 | SEQ ID 13: Chicken MMP-9 synthetic oligopeptide, sequence CHFPFIFEGRSYSRC |  |  | Soluble | Soluble | most active
16 | SEQ ID 19: Mouse MMP-9 synthetic oligopeptide, sequence DQDKLYGFCPTRVDA (printed identical to SEQ ID 17) | 0.818 |  | Soluble | Soluble | 
17 | SEQ ID 9: Pufferfish MMP-9 synthetic oligopeptide, sequence DKDKKYGF | 0.131 |  | Soluble | Soluble | 
18 | SEQ ID 6: Bovine MMP-9 synthetic oligopeptide, sequence DADRQFGF | 0.096 |  | Soluble | Soluble | 
